Experimental data reported in patent US20200277373A1, “ANTI-TREM2 ANTIBODIES AND METHODS OF USE THEREOF” (Denali Therapeutics Inc., priority 2017, published 2020).

Legend:
[1] = test system: hTfR apical domain; test: Biacore T200 binding kinetics to hTfR apical domain; set-up: species or system human; conditions: analyte hTfR apical domain
Method: (§1) The binding of the TREM2/TfR-binding protein RS9.F6/3C35.21.17 to TREM2 and TfR was measured using SPR on a Biacore T200 instrument. To measure TfR binding, anti-human-Fab was immobilized on a CM5 chip, and the TREM2/TfR-binding protein was captured. Full-length human TfR or human TfR apical domain at serial dilution (e.g., concentrations of 1-1000 nM) was flowed over the chip (180 second association time) and then allowed to dissociate. Fitting was performed using a 1:1 binding model. To measure TREM2 binding, anti-human-Fc antibody was immobilized on a CM5 chip, and the TREM2/TfR-binding protein was captured. A range of concentrations of recombinant TREM2-His protein were flowed over the chip, and allowed to associate and dissociate. The resulting sensograms were fitted using a 1:1 Langmuir model to estimate kon and koff (FIG. 10).
The affinities of RS9.F6/3C35.21.17 for human TREM2 and TfR were determined by surface plasmon resonance using a Biacore™ T200. Biacore Series S CM5 sensor chips were immobilized with a mixture of two monoclonal mouse anti-Fab antibodies (Human Fab capture kit from GE Healthcare). Serial 3-fold dilutions of each antigen were injected at a flow rate of 30 μL/min. The binding of the antigens to captured antibody was monitored for 30 to 180 seconds and then their dissociation was monitored for 30-300 seconds in HBS-EP+running buffer (GE, # BR100669). […]

[2] = target: T1, hTREM2 (Homo sapiens, UniProt Q9NZC2); test: Biacore T200 binding kinetics to hTREM2; conditions: analyte hTREM2
T1 construct: The ecto domain (residues 19-172) of TREM2 (UniProtKB—Q9NZC2); secretion signal of mouse Ig kappa chain V-III (P01661 aa 1-20) (N); made in house; host or cells: Expi293F
T1 sequence (Q9NZC2 19-172): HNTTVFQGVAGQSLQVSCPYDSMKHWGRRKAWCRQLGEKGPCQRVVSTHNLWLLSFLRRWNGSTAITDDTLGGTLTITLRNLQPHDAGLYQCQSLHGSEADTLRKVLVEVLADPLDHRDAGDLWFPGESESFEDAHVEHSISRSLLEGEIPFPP
Method: as §1
The affinities of RS9.F6/3C35.21.17 for human TREM2 and TfR were determined by surface plasmon resonance using a Biacore™ T200. Biacore Series S CM5 sensor chips were immobilized with a mixture of two monoclonal mouse anti-Fab antibodies (Human Fab capture kit from GE Healthcare). Serial 3-fold dilutions of each antigen were injected at a flow rate of 30 μL/min. The binding of the antigens to captured antibody was monitored for 30 to 180 seconds and then their dissociation was monitored for 30-300 seconds in HBS-EP+running buffer (GE, # BR100669). Binding response was corrected by subtracting the RU from a blank flow cell. A 1:1 Languir model of simultaneous fitting of kon and koff was used for kinetics analysis.

B1: RS9.F6/3C35.21.17_LALAPG: TREM2/TfR-binding protein: RS9.F6 Fabs on TfR-binding knob Fc and hole Fc; SEQ ID NOs:35, 91, 92 (protein)
light: DVVMTQTPLSLPVSLGDQASISCRSSQSLVHNNGNTFLHWYLQKPGQSPKLLIYKVSNRFSGVPDRFSGSGSGTDFTLKISRVEAEDLGVYFCSQTTHVPPTFGGGTKLEIK
heavy 1: QVQLQQPGAELVKPGASVKLSCKASGYTFTSYWMHWVKQSPGRGLEWIGRSDPTTGGTNYNEKFKTKATLTVDKPSSTAYMQLSSLTSDDSAVYYCVRTSGTGDYWGQGTSLTVSSASTKGPSVFPLAPSSKSTSGGTAALGCLVKDYFPEPVTVSWNSGALTSGVHTFPAVLQSSGLYSLSSVVTVPSSSLGTQTYICNVNHKPSNTKVDKKVEPKSCDKTHTCPPCPAPEAAGGPSVFLFPPKPKDTLMISRTPEVTCVVVDVSHEDPEVKFNWYVDGVEVHNAKTKPREEQYNSTYRVVSVLTVLHQDWLNGKEYKCKVSNKALGAPIEKTISKAKGQPREPQVYTLPPSRDELTKNQVSLWCLVKGFYPSDIAVLWESYGTEWASYKTTPPVLDSDGSFFLYSKLTVTKEEWQQGFVFSCSVMHEALHNHYTQKSLSLSPGK
heavy 2: QVQLQQPGAELVKPGASVKLSCKASGYTFTSYWMHWVKQSPGRGLEWIGRSDPTTGGTNYNEKFKTKATLTVDKPSSTAYMQLSSLTSDDSAVYYCVRTSGTGDYWGQGTSLTVSSASTKGPSVFPLAPSSKSTSGGTAALGCLVKDYFPEPVTVSWNSGALTSGVHTFPAVLQSSGLYSLSSVVTVPSSSLGTQTYICNVNHKPSNTKVDKKVEPKSCDKTHTCPPCPAPEAAGGPSVFLFPPKPKDTLMISRTPEVTCVVVDVSHEDPEVKFNWYVDGVEVHNAKTKPREEQYNSTYRVVSVLTVLHQDWLNGKEYKCKVSNKALGAPIEKTISKAKGQPREPQVYTLPPSRDELTKNQVSLSCAVKGFYPSDIAVEWESNGQPENNYKTTPPVLDSDGSFFLVSKLTVDKSRWQQGNVFSCSVMHEALHNHYTQKSLSLSPGK
[1]
  ka: 1.7e+06 M⁻¹ s⁻¹
  kd: 0.19 s⁻¹
[2]
  ka: 150000 M⁻¹ s⁻¹
  kd: 0.00038 s⁻¹
